Sequences and labels used below:
B4: murine RANK-Fc (Fc fusion, mouse, UniProt O35305 31-214, looked up)
chain: VTPPCTQERHYEHLGRCCSRCEPGKYLSSKCTPTSDSVCLPCGPDEYLDTWNEEDKCLLHKVCDAGKALVAVDPGNHTAPRRCACTAGYHWNSDCECCRRNTECAPGFGAQHPLQLNKDTVCTPCLLGFFSDVFSSTDKCKPWTNCTLLGKLEAHQGTTESDVVCSSSMTLRRPPKEAQAYLPS
notes: also called mRANK-Fc; mRANK-FC; not shown: Fc part of the bought fusion; not described

The target of the assay “murine RANK-Fc” is B4. Description: SPR (Biacore T100) single cycle kinetics, mRANK-Fc captured on protein A at 200 RU, 1:1 fit. How it is done:
(§1) FIG. 35. Binding of dimeric human RANKL variants and human RANKL WT towards murine RANK at 37° C. (left) or human RANK (right) receptor. Receptors were captured at a level of 200 RU using a Protein A (Sigma) modified surface of a CM5 chip (Biacore GE Lifesciences). Receptor binding curves of purified human hD1.3 and hD2.3 variants and human RANKL WT (E. coli produced, R&D systems) were recorded in real time using the single cycle kinetics method (Biacore) using a Biacore T100 (Biacore, GE Lifescience). Ligands were injected in 5 consecutive injection from 1 nM to 100 nM. After subtracting the signal from the reference channel and buffer injections the resulting binding curves were fitted to a 1:1 interaction model using the BiaEvaluation software (Biacore GE Lifescience). Flow rate was 50 ul/min and protein A surface was regenerated using 10 mM Glycine pH 2 solution, murine RANK-Fc and human RANK-Fc were obtained from R&D systems. Running buffer was HBS-EP+ (Biacore GE Lifescience).

A further assay deals with T1, human RANK-Fc (human, UniProt Q9Y6Q6 30-212).
T1 construct: also called hRANK-Fc; hRANK-FC; not shown: Fc part of the bought fusion; not described
T1 sequence (looked up): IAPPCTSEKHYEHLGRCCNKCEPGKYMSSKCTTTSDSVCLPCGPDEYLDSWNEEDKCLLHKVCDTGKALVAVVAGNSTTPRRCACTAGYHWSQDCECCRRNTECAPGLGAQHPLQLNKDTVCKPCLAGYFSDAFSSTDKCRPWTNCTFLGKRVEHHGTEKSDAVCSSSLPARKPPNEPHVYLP
Description: SPR (Biacore T100) single cycle kinetics, hRANK-Fc captured on protein A at 200 RU, 1:1 fit. How it is done: as §1

In assay [1] the target is T2, murine RANKL heterodimeric variant mD2 (mouse Dimer 2) (mouse, UniProt O35235 160-316; O35235 160-316).
T2 construct: range 160-316; Heterodimer of monomer A (His-tagged) and monomer B, co-expressed in E. coli; also called RANKL dimer 2; dRANKL D2; not shown: hexahistidine-tag fused to monomer A
T2 sequence (looked up) 1: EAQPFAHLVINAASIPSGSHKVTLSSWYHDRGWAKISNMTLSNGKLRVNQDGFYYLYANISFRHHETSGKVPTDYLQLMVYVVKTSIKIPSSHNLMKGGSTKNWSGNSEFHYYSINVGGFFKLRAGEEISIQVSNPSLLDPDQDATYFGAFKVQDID
T2 sequence (looked up) 2: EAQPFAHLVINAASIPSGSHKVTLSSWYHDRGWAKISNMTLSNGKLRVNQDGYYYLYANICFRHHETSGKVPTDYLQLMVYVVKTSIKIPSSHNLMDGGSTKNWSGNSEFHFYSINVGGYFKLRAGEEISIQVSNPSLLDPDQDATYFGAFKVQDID
The experiment in a line: SPR, mRANK-Fc captured at low density on C1 chip, 1:1 Langmuir fit, mean of three experiments. Here is the method:
(§2) SPR measurements were performed using ˜1500-2000 RU of captured mRANK-Fc on the surface of a CM5 sensor chip (FIGS. 15B and C). This is a density that results in a mean ratio of RANKL:RANK of approx 1:3 (52). […] (Table 5, below) In contrast, the ratio of binding of RANKL variants mD1 and mD2 to mRANK-Fc seems hardly to be affected by receptor density (Table 5). The values obtained after injecting 500 nM of the dimeric variants correlate to binding of 1.5 monomeric subunits by mD1 and 1.6 monomeric subunits by mD2.
(§3) Kinetic binding parameters were also measured for mD1 and mD2 binding to mRANK-FC in real time using SPR using murine RANKL-WT as a control (FIG. 15; table 8). RANKL dimer binding curves to mRANK-Fc captured at low density on the surface of a C1 sensorchip were recorded using concentrations ranging from 100 pM to 562 nM. At very low receptor density, RANKL proteins bind only one receptor molecule, allowing the data to be fitted to a Langmuir 1:1 interaction model (29). RANKL WT needed a very low density (<20 resonance units (RU)) to come close to a 1:1 ratio (FIG. 3A). […] Maximum binding of 5.5 RU is reached, which is slightly lower than the expected Rₘₐₓ value of 6.8 RU for a 1:1 ratio, but definitely larger than 3.4 RU, the Rₘₐₓ value expected for a binding ratio of 2 molecules of RANK per flag-mRANKL WT trimer. Similar to mRANKL WT, binding of RANKL mD1 or mD2 to mRANK-Fc results in slightly lower Rₘₐₓ values than expected for a 1:1 binding ratio: 24 RU D1 compared to 26 RU, and 20 RU D2 compared to 23 RU (FIG. 15A). These binding ratio's could be reached with mD1 and mD2 at densities of mRANK-Fc of <50 RU. The approximate 1:1 binding of RANKL proteins to mRANK-Fc allows fitting the data to the 1:1 Langmuir binding model.
Background: SPR reads the build-up and loss of mass on a sensor chip optically.

The target in assay [2] is T3, murine RANKL heterodimeric variant mD1 (mouse Dimer 1) (mouse, UniProt O35235 160-316; O35235 160-316).
T3 construct: range 160-316; Heterodimer of monomer A (His-tagged) and monomer B, co-expressed in E. coli; also called RANKL dimer 1; RANK-L Dimer 1; not shown: hexahistidine-tag fused to monomer A
T3 sequence (looked up) 1: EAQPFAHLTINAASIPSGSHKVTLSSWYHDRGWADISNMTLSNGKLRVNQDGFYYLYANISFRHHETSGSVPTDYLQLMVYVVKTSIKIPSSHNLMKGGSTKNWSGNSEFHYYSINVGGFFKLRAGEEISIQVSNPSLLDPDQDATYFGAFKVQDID
T3 sequence (looked up) 2: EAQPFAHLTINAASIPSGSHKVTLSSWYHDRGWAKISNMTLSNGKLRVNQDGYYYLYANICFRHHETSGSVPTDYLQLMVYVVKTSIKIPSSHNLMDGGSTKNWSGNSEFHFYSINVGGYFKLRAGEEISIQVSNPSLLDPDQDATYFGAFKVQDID
Described as above. How it is done:
as §2, §3

Assay [3] deals with T2, murine RANKL heterodimeric variant mD2 …. The experiment in a line: SPR single cycle kinetics, mRANK-Fc captured at 20-40 RU, 1:1 fit. How it is done: (§4) Considering the high similarity between human RANKL and murine RANKL (>88%) the murine dimers were also tested for hRANK binding. Binding to hRANK-Fc and mRANK-Fc (both from R&D Systems) was recorded for five consecutive concentrations of murine flag RANKL WT, D1 (mD1) or D2 (mD2) (˜0.3-15 nM) using SPR with a single cycle kinetics based approach. The capture level of mRANK-Fc and hRANK-Fc was low (20-40 RU) in order to ensure 1:1 binding. Both WT and the D1 and D2 dimeric variants bound with high affinity towards the mRANK receptor and to the human RANK receptor (FIG. 16: Table 8).

Assay [4] concerns the target T3, murine RANKL heterodimeric variant mD1 …. Described as above. How it is done: as §4

Broadly, the Kd is the equilibrium constant for the complex coming apart. Lower therefore signals higher affinity. A word on the koff: it is a measure of how fast the partners let go of each other. One may read the kon as the second-order rate constant of association. Read a high kon as fast association.

B1: trimeric human RANKL WT (E. coli produced, R&D Systems) (ligand, UniProt O14788 140-317, looked up)
chain: IRAEKAMVDGSWLDLAKRSKLEAQPFAHLTINATDIPSGSHKVSLSSWYHDRGWAKISNMTFSNGKLIVNQDGFYYLYANICFRHHETSGDLATEYLQLMVYVTKTSIKIPSSHTLMKGGSTKYWSGNSEFHFYSINVGGFFKLRSGEEISIEVSNPSLLDPDQDATYFGAFKVRDID
notes: Bought protein; also called hWT
In the assay with murine RANK-Fc, B1 had a Kd of 0.136 nM, a dissociation rate constant (koff) of 0.000142 s⁻¹ and a kon of 1.04e+06 M⁻¹ s⁻¹. In the assay with human RANK-Fc, this molecule displayed a Kd of 0.267 nM, a koff of 0.00023 s⁻¹ and a kon of 861000 M⁻¹ s⁻¹.

B2: human RANKL heterodimeric variant hD1-3 (ligand)
chain 1: MGSSHHHHHHSQDPEAQPFAHLTINATDIPSGSHKVSLSSWYHDRGWADISNMTFSNGKLIVNQDGFYYLYANISFRHHETSGDLATEYLQLMVYVTKTSEKIPSSHTLMKGGSTKYWSGNSEFHYYSINVGGFFKLRSGEEISIEVSNPSLLDPDQDATYFGAFKVRDID
chain 2: MEAQPFAHLTINATDIPSGSHKVSLSSWYHDRGWAKISNMTFSNGKLIVNQDGYYYLYANICFRHHETSGDLATEYLQLMVYVTKTSEKIPSSHTLMDGGSTKYWSGNSEFHFYSINVGGYFKLRSGEEISIEVSNPSLLDPDQDATYFGAFKVRDID
notes: Heterodimer expressed in E. coli BLR (DE3); copies: 1 + 1
Regarding B2, in the assay with murine RANK-Fc, the Kd stood at 0.211 nM, the koff was 0.00019 s⁻¹ and the on-rate (kon) was determined as 899000 M⁻¹ s⁻¹. In the assay with human RANK-Fc, this molecule registered a Kd of 0.345 nM, a koff of 0.000275 s⁻¹ and an association rate constant (kon) of 798000 M⁻¹ s⁻¹.

B3: human RANKL heterodimeric variant hD2-3 (ligand)
chain 1: MGSSHHHHHHSQDPEAQPFAHLVINATDIPSGSHKVSLSSWYHDRGWAKISNMTFSNGKLIVNQDGFYYLYANISFRHHETSGKLATEYLQLMVYVTKTSEKIPSSHTLMKGGSTKYWSGNSEFHYYSINVGGFFKLRSGEEISIEVSNPSLLDPDQDATYFGAFKVRDID
chain 2: MEAQPFAHLVINATDIPSGSHKVSLSSWYHDRGWAKISNMTFSNGKLIVNQDGYYYLYANICFRHHETSGKLATEYLQLMVYVTKTSEKIPSSHTLMDGGSTKYWSGNSEFHFYSINVGGYFKLRSGEEISIEVSNPSLLDPDQDATYFGAFKVRDID
notes: Heterodimer expressed in E. coli BLR (DE3); also called hRANKL D2.3; copies: 1 + 1
In the assay with murine RANK-Fc, B3 yielded an equilibrium dissociation constant (Kd) of 0.0504 nM, an off-rate (koff) of 8.32e-05 s⁻¹ and an on-rate (kon) of 1.65e+06 M⁻¹ s⁻¹. In the assay with human RANK-Fc, this molecule had a Kd of 0.0766 nM, a koff of 8.87e-05 s⁻¹ and a kon of 1.16e+06 M⁻¹ s⁻¹.

Take B4: in assay [1], the Ka stood at 2.1e+11 M⁻¹, the Kd was 0.01 nM, the off-rate (koff) stood at 4.3e-05 s⁻¹ and the kon was 4.9e+06 M⁻¹ s⁻¹. In assay [2], this molecule gave a Ka of 2.7e+10 M⁻¹, a Kd of 0.146 nM, a koff of 0.00015 s⁻¹ and a kon of 5.8e+06 M⁻¹ s⁻¹. In assay [3], this molecule displayed a Kd of 0.00855 nM, a koff of 5.76e-05 s⁻¹ and a kon of 6.73e+06 M⁻¹ s⁻¹. In assay [4], the Kd stood at 0.0439 nM, the dissociation rate constant (koff) amounted to 0.000247 s⁻¹ and the kon worked out at 5.93e+06 M⁻¹ s⁻¹.

The values above are taken from patent publication US20140096274A1 (published 2014).
